In article PMC6220978, “Induced conformational changes activate the peptidoglycan synthase PBP1B” (Molecular Microbiology, 2018) one finds Kd data, which are given here for one molecule.

Assay in all cases: SPR; PBP1B versions immobilised to the chip surface; LpoB injected from 19.5 nM to 10 μM; apparent KD by non-linear regression, at least three independent experiments
Conditions in all cases: both partners purified

The target of one assay is T1, PBP1B^Δ158–160 (E. coli, UniProt P02919 46-844, Δ158–160).
T1 construct: PBP1B, E. coli, residues 46-844 with residues 158-160 of Loop 1 removed, made by mutagenesis of pDML924; also called Loop 1 truncation; source: E. coli BL21(DE3), purified (membrane extract, HisTrap, thrombin, HiTrap SP ion exchange)
T1 sequence (looked up): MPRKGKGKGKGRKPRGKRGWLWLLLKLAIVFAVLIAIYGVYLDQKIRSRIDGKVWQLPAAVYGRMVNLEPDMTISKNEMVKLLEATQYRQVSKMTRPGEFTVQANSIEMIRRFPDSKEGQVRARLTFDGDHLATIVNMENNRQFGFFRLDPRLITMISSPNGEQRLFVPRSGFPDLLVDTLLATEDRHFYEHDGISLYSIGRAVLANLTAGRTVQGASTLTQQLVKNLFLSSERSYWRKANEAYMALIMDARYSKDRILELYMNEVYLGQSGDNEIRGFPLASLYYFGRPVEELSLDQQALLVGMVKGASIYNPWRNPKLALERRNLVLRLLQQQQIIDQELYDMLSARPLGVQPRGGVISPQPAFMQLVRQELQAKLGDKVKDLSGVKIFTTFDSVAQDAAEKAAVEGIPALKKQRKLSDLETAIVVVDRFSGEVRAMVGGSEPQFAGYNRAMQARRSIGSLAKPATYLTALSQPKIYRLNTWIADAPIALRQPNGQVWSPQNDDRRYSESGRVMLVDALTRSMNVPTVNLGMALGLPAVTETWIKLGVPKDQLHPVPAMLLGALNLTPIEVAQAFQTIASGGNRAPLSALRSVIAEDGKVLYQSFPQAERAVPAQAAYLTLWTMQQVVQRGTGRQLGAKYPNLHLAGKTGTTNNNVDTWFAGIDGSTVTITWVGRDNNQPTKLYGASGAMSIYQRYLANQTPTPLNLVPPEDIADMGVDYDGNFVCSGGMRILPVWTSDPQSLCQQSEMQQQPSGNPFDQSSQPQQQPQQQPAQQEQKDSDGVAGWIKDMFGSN

The target of the next assay is T2, PBP1B R109G (E. coli, UniProt P02919 46-844, R109G).
T2 construct: PBP1B, E. coli, residues 46-844, made by mutagenesis of pDML924; source: E. coli BL21(DE3), purified (membrane extract, HisTrap, thrombin, HiTrap SP ion exchange)
T2 sequence (looked up): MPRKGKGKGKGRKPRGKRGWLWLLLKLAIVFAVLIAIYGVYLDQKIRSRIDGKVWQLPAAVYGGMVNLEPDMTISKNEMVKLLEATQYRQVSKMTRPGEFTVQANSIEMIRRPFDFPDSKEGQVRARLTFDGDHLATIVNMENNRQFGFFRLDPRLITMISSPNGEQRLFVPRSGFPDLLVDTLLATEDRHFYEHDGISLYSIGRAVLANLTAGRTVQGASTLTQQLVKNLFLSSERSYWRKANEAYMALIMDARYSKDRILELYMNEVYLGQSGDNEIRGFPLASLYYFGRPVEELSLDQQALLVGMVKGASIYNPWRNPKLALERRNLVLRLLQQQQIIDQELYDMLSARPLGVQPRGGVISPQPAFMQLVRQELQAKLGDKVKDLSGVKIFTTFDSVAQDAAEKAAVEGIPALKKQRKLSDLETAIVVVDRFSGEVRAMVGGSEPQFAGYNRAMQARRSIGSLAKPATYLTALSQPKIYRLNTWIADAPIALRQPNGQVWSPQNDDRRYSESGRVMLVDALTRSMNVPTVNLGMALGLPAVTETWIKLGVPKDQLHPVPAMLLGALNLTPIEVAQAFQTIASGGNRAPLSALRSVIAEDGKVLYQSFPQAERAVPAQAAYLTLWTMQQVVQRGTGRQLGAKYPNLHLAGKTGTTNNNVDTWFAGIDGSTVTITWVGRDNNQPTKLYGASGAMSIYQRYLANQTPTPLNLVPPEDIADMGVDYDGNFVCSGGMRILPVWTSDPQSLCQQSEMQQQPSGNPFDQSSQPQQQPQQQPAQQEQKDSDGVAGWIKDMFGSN

A further assay deals with T3, PBP1B N112G (E. coli, UniProt P02919 46-844, N112G).
T3 construct: PBP1B, E. coli, residues 46-844, made by mutagenesis of pDML924; source: E. coli BL21(DE3), purified (membrane extract, HisTrap, thrombin, HiTrap SP ion exchange)
T3 sequence (looked up): T2 sequence (looked up) with G64R, N67G

Positions count from the first letter of the chain named.

B1: LpoB (natural protein, E. coli)
chain: VGQREPAPVEEVKPAPEQPAEPQQPVPTVPSVPTIPQQPGPIEHEDQTAPPAPHIRHYDWNGAMQPMVSKMLGADGVTAGSVLLVDSVNNRTNGSLNAAEATETLRNALANNGKFTLVSAQQLSMAKQQLGLSPQDSLGTRSKAIGIARNVGAHYVLYSSASGNVNAPTLQMQLMLVQTGEIIWSGKGAVSQQ
notes: LpoB, E. coli; also called lipoprotein LpoB; source: E. coli BL21(DE3), purified (HisTrap, Superdex 200), as in Egan et al. 2014
Turning to B1, the Kd with PBP1B^Δ158–160 was 1.9 µM; with PBP1B R109G, 3.09 µM; with PBP1B N112G, 0.356 µM.
